System: Saccharomyces cerevisiae
Assay: transcriptional activation domain activity (GFP:mCherry ratio, weighted mean of sorted bins, harmonized to initial dataset scale) (arbitrary fluorescence ratio units); higher = stronger transcriptional activation
Conditions: beta-estradiol 1 µM; induction time 4 h
In short: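 Values are activation activity, found as the read-weighted mean of bin median fluorescence, averaged across barcodes and then mapped linearly onto the initial dataset scale. Barcoded protein tiles fused to an estradiol-inducible synthetic transcription factor were integrated at the URA3 locus of GFP-reporter yeast diploids. Cells were induced for 4 hours at 30 °C with 1 uM beta-estradiol in SC, sorted into 8 bins by GFP:mCherry ratio, and barcode-sequenced, with tiles under 50 reads discarded.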

| Sequence | transcriptional activation domain activity |
| --- | --- |
| ASDKQETSSQPEGGKEKEAAKEEKKPEPKKEEPKQESKPAPAPKQEKKPEPKK | 32600 |
| MARLHIGQLCSRSFFYALLVLSTWSSKLVYLWPHLTSSLPPLLIVLYIPTFLL | 72900 |
| VCLNLLGGVVVCYCPGLLVIAAIEAPIRFKHIFTCSIHIHSLYLRLLFCALHA | 69200 |
| SSQVARLHQSWQHSIRVPFALVANYDHPLPWLLQHYVPLYMPALLFRFHILTF | 50100 |
| LHLFTNIDILKYDYGHIREDHIWVCLMHFTKRSRVVRWLVKSIYRPLLLGGLR | 77200 |
| LAGGLGFFLWLLPTWWVLFACVGFLVWLFWSPVVLVASVGFVAWKLGYWWVLW | 24100 |
| DPNSPLDGDVDELRSREIAAKAVTGTLILLLKWLKLSHVLKFEYVTQLLLDLN | 57100 |
| MNRFSIRFTFVISLIDILRGIIILLYTYIHNVGFQCSLISFLFHWLTLVYFFL | 55100 |
| MQMIFFLSLTFLILLFFFFFFFSSFPFPFTIITFYISNPLFYFVTLLVSITYF | 19100 |
| KKRNAKRPKVESEGEDELADAKKEADDDEDESPKKVSKASSSPEAKVKQSSVS | 26200 |
| TNLLDRFQTYMERSRFHLLDLLFDFSSHFSAPLMKLAMQHARRWRRFSIFAFW | 45100 |
| AADGSPAPRPNAICIHEVDQGIQWKHTNHRTGKAVVVRKRQLVLQQIITVANY | 44500 |
| DFDVNEFDPQVLFSTGTRTVEFMDDQNQPSSASAFLSTARPNHYSTHTPTTDV | 75300 |
| MKGVCLKVGTTKPKKPNSGERKIARVRLSSGKVITAYIQGEGHNVQQHSVVLV | 51000 |
| NPPIPVIPADVDRSKIPKCKHIGSRLRHFDDDLGYYLVQVCINLLQRIWKIFY | 37200 |
| MLSVSLSFPFLLFFFSVSIFLLLLLLFSVSFILLLSLFFCSSFSFFNSFMVFF | 43100 |
| FSLFLLSLLPTADAFFPLLLFVSCWLTLYTFVLCLLSYFFYSLTLTLYVCLVS | 55800 |
| ILLMLATGQWRLLIDALVSMSDIEVQFFLRQLALCKLVNWKASIVNGYPSPVE | 52400 |
| LLFTFCLYPSFLPFLLLSPLFFFLSLSPFSFFSLFSLSLPLLSPSLFSTPFIH | 39600 |
| MFTFNASSTINITLSILCYFIFLISVLLIRLYLNNSFMLFSLFFFFYFIYVIL | 61200 |
| EMVDIFAHMDNIERLIAPFSVLAEHEVFHFNMLRIYYLTLRLLVLLHGVIEVK | 75200 |

| Sequence | transcriptional activation domain activity |
| --- | --- |
| SPVYLICMGTVLLYVGVIIVMLIERIAYFRPGDGLCVIGLKPVASLSLLCFDL | 37200 |
| MRGVCSFCSFCSFSFLFLFLFLFLFFSFFSFFSFCFFLFFPSFLSVSLSFLLS | 71100 |
| SFIHSLLYAFLSFFPHLFISYFLSSFYYLSTHLFLSFFPFLVILFTSCYQNLS | 57700 |
| LYLRLLVGYLFMILVLLCSHNMMIFLLRSLHHLLTFLTCPLHFFLLLLLLMIT | 39000 |
| AAAKAKDNIKEEDEADELAPVKKTAKKRGPKAQDVDGEGAPKKKPRGRPAKKA | 17000 |
| SEEDEIKAGEEVPKKRRRRQALSCTECKRRKIKCDRQHPCGPCVRRTEADKCH | 52300 |
| AGAAAASTAAEADGEKDGEEGETKPAAPAKKPRKARAKKQVKSEEKAVEEATG | 19300 |
| MLTLLSVTHGLLHKSLVHLGSIFDLCLLWAQGKYTNPILSCLLSLYLLSWLLY | 62700 |
| LATTDLTHRQNGEEPIQNEIAKLFHSGGDSVVDILFSQTSATEFVTVGGTGNV | 64400 |
| KQYCVRPNSGRIEPGKSVEVTVLLQAMKAEPPMDAKCRDKFLVQSVAVTADKE | 33600 |
| SGFRDNRKDNRGRGRDRGNRRDNRGNDRNREREDKEKAESKDVKSEDAPVKTE | 28100 |
| GESNASLTKTLDSVLRNCFPQRSRMVLPVELPLDVFVCIVHFLLVRQFEYGQE | 49700 |
| KSYVAILGYIMYPPTTRLVIHIRVWADALRALSSQAMLKTYLLTRGYQFRSIV | 58900 |
| TIPGLIRTSPRFGIMLLCLLLSIIFLFTDVIFMIVVSRRGGMNPFWRLALVFK | 52600 |
| MRLIYLPIIFCRLPSHGWTIWMPIIRALSLLVFSLIYLLFIGDLPALTLTIFF | 50900 |
| AAAGNATAEAGAAEGKAKGKGKDAAAAEGAAAAGGAAAAEGKAKGKGKDAAAA | 46600 |
| RLEASKKRKARVEVDIVLERDCVVEGGEVRGRMEVRVHGSKRSEGLRVGAGKI | 44400 |
| MTNFSVALNVHTQIAYHNAEALRLKCMYNASSLLAKLPPHVLALIFLNHANWF | 36200 |
| PFSFGLFLLYLCSCLTNCMTHIVFCLCSNIQLFFRFWFFYWIDHRPLGFFLAR | 44700 |
| KKLHLESEEDAEYIVAKAIRDGVIEAQVNHERGEMTSRETGDVYSTNEPQAQL | < 6570 |
| LYFLLLLSPLCIGLVSVLCCHIGFIFLFLFFLLQSYQVSYLLLFMYIRFFLCM | 42300 |

| Sequence | transcriptional activation domain activity |
| --- | --- |
| SPQRSTSSTSSKAAAAPKAAAQPKQQQQKPAAPSKPAAAAAAPKTAPKPAAAS | 26000 |
| MEWVRTARGRVPPGRRPVEGGYESSGARLYHALAVVDGVRVPGKTGEHLGGCN | 32000 |
| MLAMISFFMYPPPLLFFFALWLSFSLFSIHKPPWLLFQNVHFYVLFLFFSFLA | 36300 |
| KIHLVNIAQVVVFFIYRFLYGLIPLFEISTCAYYPLLVSLWHLDYLLFYTVMF | 64000 |
| SNRLFVGLPLCRDPEYLKFSVNHTMRVFMSGRMISVLTPVLRPILAPLLCSRK | 49600 |
| PGLILVYSHLNLLLRNHADLEMIYIIGPGHGAPAALAALWLEGSLERFYPGEY | 31000 |
| MCVFHFLPWLLFPSPLISLFFVFFILFSFFVFFFLVPSSCPSFISFFPVSCLF | 38000 |
| RVHMLLCICLIATFVGVTVDLALEILFRLSQFSESPRFSPTGSRTLILTLPLF | 45300 |
| MDCLGMEFIGCEIFGAVALIFLFFFLFFFFFIFFHFLLIFLFSFSFFLFFFFV | 47200 |
| FFFFPFLSLLFFFFPFLLSLLSSSLLLAAFSCFCFLPSLTPLPLSSSSSSPLF | 34900 |
| ASGAKTVVKKEPASATPEPAPKQAEVKKPAAAEAAPVPAAKAAPALASAAAAA | 43400 |
| PEEKKEKAAEGEATKKEGEVGKKKGKKGDKKKEASGEQAPAAAAPAEEKKAEQ | < 6570 |
| HGAPPPPPPPPPPPPPVAGGPPPPPPPPPPGGAPPPPPPPPPPGGGGSAPLPA | 44500 |
| MLRVIVLLIVIDHLLYLPWLYFATYNARLLSCQSSTGRIYIERNCHSHSYGDK | 50700 |
| MGNFLYGFCVIFPYNLVYIIICYFGGITQVVNAGFGYMLLLIVLWTHGQLCLS | 38600 |
| HYNALNGRWKVFRNEKDEDSIRVVAGMVWWGKILVVTCVEKGVFQIRLFSSIN | 7550 |
| REEAERKAREEEAERKAARGRGEESEGRARKAGARRARGTPRGGKAGTRRGGE | 43000 |
| SSSEEGEDGKGKDKEKHGFRARAKSFTRRKSDAGSRAPSRTGRKRSDSTATAA | 24500 |
| TSDTGKKRQIKEEAEEESEEEPPTKRQRRKPVEEKETPKKAAAKPKADKVPAK | 40500 |
| MLFPCGVLFLSVFSISDTYVAFFFFFFFSFGWSFVSIGFLLFTIFFLGISFFF | 32300 |
| MRPLSWRLWRTGDSNRELLSHFLFYLGLFFFFREWLFLVLFFLFLLLLLPGVR | 26600 |

| Sequence | transcriptional activation domain activity |
| --- | --- |
| IRPSTPAATRSTSPPRPRPPRASRSPRPRRTRGRRSSKLRRKATSPPPATAPS | 38200 |
| NDLFAWPWGNPIDLDVAIALQETSIGCYNKRTTVFYANSCNTLLSLLVNKFLL | 33300 |
| TWLLFRQVVDVILINDFLAYCMFAFSCFRVPTDLSIPVHVMRWLVGITLIWFN | 74100 |
| WDDILTPADNQHRPSLTNQFLSPRSNYDGTTRSSGIDSNYSDTESNYHTPYLY | 61600 |
| MVILMMGGEYGHFLGFSFYYFLHVWDGEEYYYCCGFYLSQSLLSILLCILLYL | 55400 |
| VYILVSYFLLGPRCLILIASTFLLSYHSSWSIVTRRVLWRFKVVRLIFFYLTG | 61700 |
| GLFLVFGFWYIGVCSYGFLGFSLSLGGVYIRFFLYYHYQRILRLISLPFPVWF | 59700 |
| EEEYEEEEEEEYEEEEDEEEDEDEEEGGEGEEEDEVKAQRGRRAATAPARARR | 28000 |
| MGKGGYGEQRGGGRGGFRGGRGGGRGGFGGGGFNQGPPSEVVVVGTFVSACEG | 58400 |
| NLDFDFALPQTATAPDAKTVLPIPELDDAVVESFFSSSTDSTPMFEYENLEDN | 91700 |
| VFFMPSMCSGYLWISLCYLSFWTNMREWRLKRKVVWFLCLFWVFMCCLLFYLT | 34700 |
| LQQVCNVLPSFEQSSKIITDFFNTELETNEVSEVLDKTKIINDFTSSFLPSDE | 50400 |
| AEHVDLVGCPVHVMTRFWHLYLPAFTLHTVLYIFTLIRVLNCENSPQALLIRR | 56600 |
| SQQRLEVSAMYLFWHMDTVRGLCVRMPGTVMTRAHFFRLLTYYFAMLFLSAAL | 57000 |
| TSSPSGQNASSTSVALVVGSDEKLVKAVGEGLKSKLGIKGGGKGPRWTGKWTG | 33700 |
| MSIVPVNSTYTLCILLMFVMLETTLYDPPLCGCMARLVTMFYGFFYGFFIYLI | 61000 |
| RKKREREAEKAEAKRKEERDARRREREKREEEREREREKEREERRRARERDRE | 33900 |
| MRILFTICRYFPLLFYPFYLWAWVPVHSKELCEKLICPFGQYLCILILLCACW | 56600 |
| SISQFCWIWYTRPRPLQDICYYDSASRGPWGCFLLLLRLRFIRFACIGAIITL | 78600 |
| IRYWLLTFFVMDFLPNRELRLLLASWLNTLVNDPILKKHQDGLSIVRKLIKVA | 51600 |

— the supplement of paper PMC12636428
